In patent publication US20240059788A1 (Kyowa Kirin, published 2024):

T1: mouse EpCAM-GST (mouse, UniProt Q99JW5 24-266)
T1 construct: not shown: GST added to the C terminus (N5 vector)
T1 sequence: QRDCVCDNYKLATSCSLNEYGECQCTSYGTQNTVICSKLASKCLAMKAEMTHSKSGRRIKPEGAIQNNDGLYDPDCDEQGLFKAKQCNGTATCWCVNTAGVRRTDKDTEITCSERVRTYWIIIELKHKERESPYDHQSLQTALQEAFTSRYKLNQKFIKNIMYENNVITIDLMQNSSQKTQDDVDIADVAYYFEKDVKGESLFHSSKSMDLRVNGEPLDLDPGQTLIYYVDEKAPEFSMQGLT

T2: human EpCAM-GST (human, UniProt P16422 24-265)
T2 construct: also called soluble human EpCAM antigen; not shown: GST added to the C terminus (N5 vector)
T2 sequence: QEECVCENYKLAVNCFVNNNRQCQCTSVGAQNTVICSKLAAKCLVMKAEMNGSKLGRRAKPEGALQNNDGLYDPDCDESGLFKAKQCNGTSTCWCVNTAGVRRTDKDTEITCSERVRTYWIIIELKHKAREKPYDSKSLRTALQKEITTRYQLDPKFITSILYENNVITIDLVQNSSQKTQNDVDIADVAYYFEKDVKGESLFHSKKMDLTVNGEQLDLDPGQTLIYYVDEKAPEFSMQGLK

T3: monkey EpCAM-GST (monkey, UniProt Q1WER1 24-265)
T3 construct: not shown: GST added to the C terminus (N5 vector)
T3 sequence: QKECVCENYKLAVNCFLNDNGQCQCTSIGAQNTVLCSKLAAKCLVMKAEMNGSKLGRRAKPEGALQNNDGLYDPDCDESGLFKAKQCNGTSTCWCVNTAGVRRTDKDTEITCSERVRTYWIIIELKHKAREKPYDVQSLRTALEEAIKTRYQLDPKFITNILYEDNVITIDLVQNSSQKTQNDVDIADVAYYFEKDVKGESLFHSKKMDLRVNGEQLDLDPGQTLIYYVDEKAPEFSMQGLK

T4: monkey CD40-GST (monkey, UniProt P25942 21-193 (human entry))
T4 construct: not shown: GST region of the N5 vector
T4 chain: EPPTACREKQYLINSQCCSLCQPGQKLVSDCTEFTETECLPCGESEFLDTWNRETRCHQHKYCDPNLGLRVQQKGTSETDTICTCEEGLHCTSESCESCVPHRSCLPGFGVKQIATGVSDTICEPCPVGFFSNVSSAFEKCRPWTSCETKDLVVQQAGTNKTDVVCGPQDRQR

T5: mouse CD40 (mouse, UniProt P27512 20-193, limits assumed)
T5 sequence (looked up): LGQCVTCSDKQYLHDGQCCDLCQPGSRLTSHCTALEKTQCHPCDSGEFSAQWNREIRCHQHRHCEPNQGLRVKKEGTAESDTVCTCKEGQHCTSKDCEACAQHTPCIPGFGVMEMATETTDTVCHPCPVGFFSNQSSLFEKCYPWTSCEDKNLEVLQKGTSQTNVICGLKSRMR

T6: human EpCAM on human EpCAM/HEK 293 cells and Colo 205 cells (human, UniProt P16422 24-314)
T6 construct: Colo 205 cells carry native EpCAM; also called hEpCAM
T6 sequence: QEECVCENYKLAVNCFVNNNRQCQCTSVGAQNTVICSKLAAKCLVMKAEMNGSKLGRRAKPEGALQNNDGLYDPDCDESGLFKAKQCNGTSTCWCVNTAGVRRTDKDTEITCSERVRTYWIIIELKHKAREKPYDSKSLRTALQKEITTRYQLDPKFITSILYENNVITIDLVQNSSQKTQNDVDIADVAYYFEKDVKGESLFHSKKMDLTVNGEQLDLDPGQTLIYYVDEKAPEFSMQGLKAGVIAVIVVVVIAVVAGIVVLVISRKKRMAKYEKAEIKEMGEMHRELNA

B1: Epc112 phage clone (scFv, V domains shown)
VH: EVQLVQSGTEVKKPGASVKVSCRASGNTFTNYYIHWVRQAPGQGLEWMGIINPSGGATNYAQILQGRVTMTRDTSTSTVYMELSSLRSEDTAVYYCAGGGSAATFAYWGQGTLVTVSS
VL: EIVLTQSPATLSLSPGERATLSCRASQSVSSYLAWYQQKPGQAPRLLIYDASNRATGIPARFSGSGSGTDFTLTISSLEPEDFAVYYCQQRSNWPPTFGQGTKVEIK
B2: R2089 phage clone (scFv, V domains shown)
VH: EVQLVQSGAEVKKPGASVKVSCKASGYSFTRYIMHWVRQAPGQRLEWMGWINAGNGNTKYSQKFQGRVTITRDTSANTAYMELSSLRSEDTAVYYCARDEPVAGSFFDYWGQGTLVTVSS
VL: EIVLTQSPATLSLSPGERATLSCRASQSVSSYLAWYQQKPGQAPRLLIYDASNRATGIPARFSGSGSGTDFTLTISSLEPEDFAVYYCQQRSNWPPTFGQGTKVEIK
B3: R2178 phage clone (scFv, V domains shown)
VH: QVQLQQWGAGLLKPSETLSLTCAVYGGSFSGYYWSWIRQSPGKGLEWIGEINHGGITNYNPSLKSRVTISVDTSKNQFSLKLGSVTAADTAVYYCARDNYYGSGSNDGVYQYYGIDVWGQGTTVTVSS
VL: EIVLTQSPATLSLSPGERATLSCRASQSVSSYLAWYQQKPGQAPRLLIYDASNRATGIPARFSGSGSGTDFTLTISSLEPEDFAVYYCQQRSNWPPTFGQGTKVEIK
B4: R1066 phage clone (scFv, V domains shown)
VH: QVQLQQWGAGLLKPSETLSLTCAVYGGSFSGYYWSWIRQPPGKGLEWIGEINHGGITHYNPSLKSRVTISVDTSKNQFSLKLSSVTAADTAVYYCARDNYYGSGSYYKYDYYGMDVWGQGTTVTVSS
VL: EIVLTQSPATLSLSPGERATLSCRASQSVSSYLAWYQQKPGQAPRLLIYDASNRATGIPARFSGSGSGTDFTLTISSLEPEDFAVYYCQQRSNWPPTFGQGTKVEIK
B5: Epc051 phage clone (scFv, V domains shown)
VH: EVQLVQSGAEVKKPGASVKVSCKASGYTFTSNYMHWVRQAPGQGLEWMGIINPSGGATSYAQKFQGRVTMTRDTSTSTVYMELSSLRSEDTAVYYCASGGYYGSVIMDVWGQGTLVTVSS
VL: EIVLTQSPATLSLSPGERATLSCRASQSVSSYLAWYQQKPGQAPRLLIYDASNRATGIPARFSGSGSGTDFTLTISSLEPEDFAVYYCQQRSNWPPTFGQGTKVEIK
B6: anti-CD40 monoclonal antibody 21.4.1 (antibody, V domains shown)
VH: not shown
VL: DIQMTQSPSSVSASVGDRVTITCRASQGIYSWLAWYQQKPGKAPNLLIYTASTLQSGVPSRFSGSGSGTDFTLTISSLQPEDFATYYCQQANIFPLTFGGGTKVQIK
notes: also called anti-CD40 agonistic antibody; CP870,893
B7: Ep203 phage clone (scFv, V domains shown)
VH: EVQLVQSGAEVKKPGASVKVSCKASGFTFSSYYMHWVRQAPGQGLEWMGIVNPTGGATSYAQKFQGRVTMTRDTSTSTVYMELSSLRSEDTAVYYCAKHGYGASTLFDSWGQGTLVTVSS
VL: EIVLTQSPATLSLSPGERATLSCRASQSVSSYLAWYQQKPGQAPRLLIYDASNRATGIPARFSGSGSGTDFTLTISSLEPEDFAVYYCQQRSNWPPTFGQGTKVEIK
B8: anti-EpCAM monoclonal antibody 3622W94 (antibody, V domains shown)
VH: QVQLVQSGPEVKKPGASVKVSCKASGYTFTNYGMNWVRQAPGQGLEWMGWINTYTGEPTYGEDFKGRFAFSLDTSASTAYMELSSLRSEDTAVYFCARFGNYVDYWGQGSLVTVSS
VL: DIVMTQSPLSLPVTPGEPASISCRSSKNLLHSNGITYLYWYLQKPGQSPQLLIYQMSNLASGVPDRFSSSGSGTDFTLKISRVEAEDVGVYYCAQNLEIPRTFGQGTKVEIK

Assays:
mouse EpCAM-GST = molecular target: T1, mouse EpCAM-GST; test: phage ELISA on immobilized EpCAM-GST
human EpCAM-GST = molecular target: T2, human EpCAM-GST; test: phage ELISA on immobilized EpCAM-GST
monkey EpCAM-GST = molecular target: T3, monkey EpCAM-GST; test: phage ELISA on immobilized EpCAM-GST
monkey CD40-GST = molecular target: T4, monkey CD40-GST; test: phage ELISA on immobilized CD40-GST
Protocol: (§1) In the ELISA, MAXISORP (manufactured by NUNC, Inc.) in which the human or monkey CD40-GST in Example 1 was immobilized on each well and a portion to which the human or monkey CD40-GST is not bound was blocked using SuperBlock Blockig Buffer (manufactured by Thermo Fisher, Inc.) was used. To each well, each phage clone was added and reacted at room temperature for 30 minutes, and thereafter, each well was washed 3 times with PBS-T.
(§2) Subsequently, an anti-M13 antibody (manufactured by GE Healthcare, Inc.) labeled with horseradish peroxidase was diluted by 5000 times with PBS-T containing 10% Block Ace (manufactured by Dainippon Pharmaceutical Co., Ltd.), and the resultant was added in an amount of 50 μL to each well, and incubated at room temperature for 30 minutes. After the microplate was washed four times with PBS-T, a TMB chromogenic substrate solution (manufactured by DAKO, Inc.) was added in an amount of 50 μL to each well and incubated at room temperature for 10 minutes.

human CD40-GST = molecular target: T7, human CD40-GST (human, UniProt P25942 21-193); test: phage ELISA on immobilized CD40-GST
T7 construct: also called soluble human CD40 antigen; not shown: GST region of the N5 vector
Protocol: as §1, §2

mouse CD40 = molecular target: T5, mouse CD40; test: not described
[1] = molecular target: T6, human EpCAM on human EpCAM/HEK 293 …; test: flow cytometry on Colo 205 cells and on human EpCAM/HEK 293 cells, detection with goat F(ab')2 anti-human IgG R-PE [B), (D]
Protocol: (§3) Ramos cells were suspended in Staining Buffer (SB) that is D-PBS(−) containing 0.1% NaN₃ and 1% FBS at a cell density of 1×10⁶ cells/mL, and the suspension was dispensed in a 96-well round bottom plate (manufactured by Falcon, Inc.) at 100 μL/well.
(§4) After further centrifugation (2000 rpm, 4° C., 2 minutes), the supernatant was removed, the resulting pellet was washed three times with 200 μL/well of SB, and thereafter, 1 μg/mL of Goat F(ab′)₂ Anti-Human IgG (γ chain specific) R-phycoerythrin (R-PE) Conjugate (manufactured by Southern Biotech, Inc.) was added at 50 μL/well, and the resultant was incubated for 30 minutes at ice temperature. After washing twice with SB, the cells were suspended in 200 μL/well of SB, and the fluorescence intensity of each cell was measured using a flow cytometer FACSCANTO II (manufactured by Becton, Dickinson and Company).
(§5) Similarly, Colo 205 cells, HEK 293 cells, and human EpCAM/HEK 293 cells were evaluated, respectively. As the negative control, IgG4 antibodies 5228P, L235E, and R409K mutants (hereinafter referred to as anti-DNP antibodies) produced according to the method described in Example 5 of WO 2006/033386 using a vector encoding VL and VH (GenBank accession No. VL U16688, VH U116687) of the 2,4-dinitrophenol (DNP) antibody described in Mol Immunol. 1996 June; 33 (9): 759-68 were used.

[2] = molecular target: T6, human EpCAM on human EpCAM/HEK 293 …; test: flow cytometry on Colo 205 cells and on human EpCAM/HEK 293 cells, antibody at 10 ug/mL, detection with goat F(ab')2 anti-human IgG R-PE [B), (D]
Protocol: as §3, §4, §5

[3] = molecular target: T8, human CD40 on Ramos cells (human, UniProt P25942 21-277); test: flow cytometry on Ramos cells, detection with goat F(ab')2 anti-human IgG R-PE [A]
T8 construct: Native CD40 of Ramos cells (Burkitt's lymphoma)
Protocol: as §3, §4

| Binder | binding result (mouse EpCAM-GST) | binding result (human EpCAM-GST) | binding result (monkey EpCAM-GST) | binding result (monkey CD40-GST) | binding result (human CD40-GST) | further results |
| --- | --- | --- | --- | --- | --- | --- |
| B1 | binds | binds | binds |  |  |  |
| B2 |  |  |  | binds | binds |  |
| B3 |  |  |  | binds | binds |  |
| B4 |  |  |  | binds | binds |  |
| B5 | binds | binds | binds |  |  |  |
| B6 |  |  |  |  |  | binding result (mouse CD40): no binding; binding result [1]: no binding (tested: 10 ug/mL) |
| B7 | binds | binds | binds |  |  |  |
| B8 |  |  |  |  |  | binding result [2]: binds; binding result [3]: no binding (tested: 10 ug/mL) |
